Measured values: patent US9889181B2, “Bacteriophage lysin and antibiotic combinations against gram positive bacteria” (priority 2012, dated 2018)
Where two headings read alike, the source gives them in different places.

Experiments:
[1] = tested on: Lactobacillus spp.; test: MIC, human gut bacteria; type: cell-based; details: N 6
[2] = tested on: MRSA strain MW2 (also strains 738, 832); type: in vivo, BALB/c mice; details: 10^9 CFU, dosing at 2 hours, PlySs2 5.25 mg/kg
[3] = tested on: MRSA strain MW2 and MSSA strain ATCC 29213; type: cell-based, Staphylococcus aureus; details: consistently across 1.25 to 15% surfactant
[4] = tested on: VRSA; test: MIC, broth microdilution (CLSI M07-A9)
[5] = tested on: Streptococcus pyogenes, Group A; test: MIC, broth microdilution (CLSI M07-A9); details: Group A (54)
[6] = tested on: 20 different MSSA and 42 MRSA strains; test: Time-kill assay, single agents at 1×MIC; type: cell-based, Staphylococcus aureus
Protocol: In order to more fully evaluate PlySs2's applicability to clinical Staphylococcal infections, time kill studies were undertaken against numerous Staphylococcus aureus strains, including methicillin resistant and methicillin sensitive strains. Time kill assays were performed according to CLSI methodology (CLSI document M07-A9 column 32 No. 2) on 42 methicillin resistant S. aureus (MRSA) strains and 20 methicillin sensitive S. aureus (MSSA) strains. Cultures of each strain (5.5×10^5-1×10^6 starting inoculum) were treated with PlySs2 lysin and with antibiotics daptomycin, oxacillin or vancomycin for comparison for 6 hours with aeration. MRSA and MSSA strains were treated with PlySs2, daptomycin and vancomycin. MSSA strains were also treated with oxacillin. 1×MIC concentrations of the different antibiotics were utilized, based on published and established antibiotic MIC values. PlySs2 lysin treatment was at approximately 1×MIC as previously determined (see TABLE 2 above). Culture aliquots were removed hourly up to 6 hours (time points taken at 15 and 30 min, 1 hr, 2 hr, 3 hr, 4 hr, 5 hr, and 6 hr) and added to a PBS/charcoal solution (to inactivate each drug), which was then serially diluted and plated for bacterial viability. The resulting log CFU/mL was plotted for each culture. Growth controls were included for each strain and represent bacterial growth in the absence of any antibacterial agent. Exemplary log kill curves for selected MRSA strains are depicted in FIG. 1. Exemplary log kill curves for selected MSSA strains are depicted in FIG. 2.
Rapid-kill kinetics are desirable in the clinical setting to treat patients with fulminant bacterial infections.

[7] = tested on: Listeria monocytogenes; test: MIC, broth microdilution (CLSI M07-A9); details: Listeria monocytogenes (12)
[8] = tested on: Lactococcus spp.; test: MIC, human gut bacteria; type: cell-based; details: N 3
[9] = tested on: LRSA; test: MIC, broth microdilution (CLSI M07-A9); design: MIC 50% / MIC 90% / MIC Range: unit not given beside the values
[10] = tested on: MSSA; test: MIC, broth microdilution (CLSI M07-A9)
[11] = tested on: Escherichia coli; test: MIC, broth microdilution (CLSI M07-A9)
[12] = tested on: MRSA strain 269 (MW2); test: Combination MIC in 15% surfactant (Survanta); type: cell-based, Staphylococcus aureus
[13] = tested on: Enterococcus faecium; test: MIC, broth microdilution (CLSI M07-A9); details: Enterococcus faecium (5)
[14] = FIG. 27B, daptomycin 50 mg/kg once daily
[15] = FIG. 27E, vancomycin 110 mg/kg twice daily
[16] = Linezolid-resistant (5) Staphylococcus aureus
[17] = Staphylcoccus aureus Methicillin susceptible (103)

B1: PlySs2: bacteriophage lysin derived from Streptococcus suis, amino acid sequence of FIG. 29 (SEQ ID NO: 1) (protein, listed as Streptococcus suis)
chain: MTTVNEALNNVRAQVGSGVSVGNGECYALASWYERMISPDATVGLGAGVGWVSGAIGDTISAKNIGSSYNWQANGWTVSTSGPFKAGQIVTLGATPGNPYGHVVIVEAVDGDRLTILEQNYGGKRYPVRNYYSAASYRQQVVHYITPPGTVAQSAPNLAGSRSYRETGTMTVTVDALNVRRAPNTSGEIVAVYKRGESFDYDTVIIDVNGYVWVSYIGGSGKRNYVATGATKDGKRFGNAWGTFK
Question: With B1 as the molecule, how does the “CF-301 MIC” value [1] read?
Answer: >512 mg/L

Question: What about the “24 hour survival rate” value [2, 14] of the same molecule?
Answer: 56%

Question: And the “72 hour survival rate” value [2, 14]?
Answer: 18%

Question: What about the “24 hour survival rate” value [2, 15] of the same molecule?
Answer: 60%

Question: And the “72 hour survival rate” value [2, 15]?
Answer: 3%

Question: What about the “fold inhibition of MIC in the presence of Survanta” value [3] of the same molecule?
Answer: 8 fold

Question: What about the “MIC90” value ([4]; VRSA (n = 14)) of the same molecule?
Answer: 0.08 µM

Question: And the “MIC Range” value ([4]; Vancomycin-resistant (14) Staphylococcus aureus)?
Answer: 1000 to 4000 mg/L

Question: And the “MIC 50%” value [5]?
Answer: 2 mg/L

Question: What about the “MIC 90%” value [5] of the same molecule?
Answer: 8 mg/L

Question: What about the “MIC Range” value [5] of the same molecule?
Answer: 0.5 to 8 mg/L

Question: And the “time to reach bactericidal levels (≧3-log10 reduction in CFUs)” value ([6]; 1×MIC)?
Answer: ≤ 30 minutes

Question: And the “comparative kill” value ([6]; 1×MIC, up to 6 hours)?
Answer: greater and faster than any antibiotic

Question: What about the “maximal kill (log reduction)” value ([6]; all MRSA and MSSA strains tested, generally within the first hour of incubation) of the same molecule?
Answer: ≥ 3 log

Question: What about the “MIC 50%” value [7] of the same molecule?
Answer: 128 mg/L

Question: And the “MIC 90%” value [7]?
Answer: 512 mg/L

Question: And the “MIC Range” value [7]?
Answer: 1 to 512 mg/L

Question: And the “CF-301 MIC” value [8]?
Answer: >512 mg/L

Question: What about the “MIC90” value ([9]; LRSA (n = 5)) of the same molecule?
Answer: 0.08 µM

Question: And the “MIC 50%” value [9, 16]?
Answer: 2

Question: What about the “MIC 90%” value [9, 16] of the same molecule?
Answer: 2

Question: What about the “MIC Range” value [9, 16] of the same molecule?
Answer: 2-4

Question: And the “MIC90” value ([10]; MSSA (n-28))?
Answer: 0.15 µM

Question: And the “MIC 50%” value [10, 17]?
Answer: 4 mg/L

Question: What about the “MIC 90%” value [10, 17] of the same molecule?
Answer: 8 mg/L

Question: And the “MIC Range” value [10, 17]?
Answer: 1 to 16 mg/L

Question: What about the “MIC 50%” value ([11]; Escherichia coli (6)) of the same molecule?
Answer: >512 mg/L

Question: What about the “MIC 90%” value ([11]; Escherichia coli (6)) of the same molecule?
Answer: >512 mg/L

Question: And the “MIC Range” value ([11]; Escherichia coli (6))?
Answer: >512 mg/L

Question: And the “CF-301 MIC” value ([11]; Escherichia coli, N 10, human gut bacteria)?
Answer: >512 mg/L

Question: And the “effective combination concentration as fraction of the MIC” value [12]?
Answer: ⅛

Question: And the “effective concentration in PlySs2 plus daptomycin combination MIC” value ([12]; 24 hours)?
Answer: 2 mg/L

Question: And the “MIC 50%” value [13]?
Answer: >512 mg/L

Question: And the “MIC 90%” value [13]?
Answer: >512 mg/L
